According to publication PMC4352895, “Jarid2 Methylation via the PRC2 Complex Regulates H3K27me3 Deposition during Cell Differentiation” (Molecular Cell, 2015):

Target: ΔEed (Eed residues 77 to 441) (UniProt O75530)
Experiment: ITC; ΔEed (residues 77 to 441) with methylated peptides; conditions in the Supplemental Experimental Procedures

Sequence of ΔEed (Eed residues 77 to 441) (O75530 77-441, stated change not applied): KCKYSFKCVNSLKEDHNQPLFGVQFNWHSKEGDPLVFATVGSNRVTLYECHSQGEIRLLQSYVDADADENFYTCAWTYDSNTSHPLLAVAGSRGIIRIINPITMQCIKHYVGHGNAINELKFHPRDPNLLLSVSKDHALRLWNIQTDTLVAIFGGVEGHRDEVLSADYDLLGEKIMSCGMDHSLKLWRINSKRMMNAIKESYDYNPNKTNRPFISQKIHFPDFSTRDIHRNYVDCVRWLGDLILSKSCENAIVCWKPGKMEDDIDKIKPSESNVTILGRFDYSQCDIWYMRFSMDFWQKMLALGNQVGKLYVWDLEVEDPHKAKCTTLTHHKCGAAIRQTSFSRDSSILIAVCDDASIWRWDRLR

Kd: 3 µM | fold affinity against the H3K27me3 peptide: 10 fold
Substance: Jarid2-K116me3 peptide
